US20170145391

Tests used:
4E-BP1 (Calbiochem) = 4E-BP1 (Calbiochem) (UniProt Q13541)
His-S6K1C = His-S6K1C (UniProt P23443)
Chain of His-S6K1C (P23443 332-502): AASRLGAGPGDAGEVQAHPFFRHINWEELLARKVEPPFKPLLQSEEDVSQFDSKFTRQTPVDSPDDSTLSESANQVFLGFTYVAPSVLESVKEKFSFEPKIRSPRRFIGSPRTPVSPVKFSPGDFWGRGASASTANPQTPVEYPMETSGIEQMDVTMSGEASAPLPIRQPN

Chain of 4E-BP1 (Calbiochem) (Q13541 whole entry): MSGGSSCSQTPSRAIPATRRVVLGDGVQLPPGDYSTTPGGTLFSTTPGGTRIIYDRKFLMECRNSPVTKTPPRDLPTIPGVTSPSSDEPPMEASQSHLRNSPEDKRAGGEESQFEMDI

FLAG-mTORα
mTOR in vitro kinase assay; immunoblot with phosphospecific antibody pS65-4E-BP1 (4E-BP1 (Calbiochem)): mTORβ can phosphorylate both S6K1 and 4E-BP1 in vitro, but to a lesser extent than mTORα
mTOR in vitro kinase assay; immunoblot with phosphospecific antibody pT389-S6K1 (His-S6K1C): mTORβ can phosphorylate both S6K1 and 4E-BP1 in vitro, but to a lesser extent than mTORα
